Assay results as given in article PMC7156504.
Where a chain is given by its changes, count along the chain named. Numbers in names are those of the source. Each block holds one binder with its values, some of them ahead of it.

Legend:
[1] = biological target: scFvWFL, single chain variant (scFv) of MEDI1912 (human); test: cross-linking; scFv 15 µM in 100 mM sodium phosphate pH 7.4, d0/d4-BS3 (50:50) at 50x, 100x, 200x and 500x molar excess, 30 min at 25 °C; SDS-PAGE densitometry and LC-MS/MS of the dimer bands
[2] = biological target: scFvSTT, scFv of MEDI1912 with W35S, F36T and L64T in VH (human); test: as above

- percent incorporated into higher-order oligomers [1]: 45%
B1: scFvWFL, single chain variant (scFv) of MEDI1912 (scFv, V domains shown)
VH: QVQLVQSGAEVKKPGSSVKVSCKASGGTFWFGAFTWVRQAPGQGLEWMGGIIPIFGLTNLAQNFQGRVTITADESTSTVYMELSSLRSEDTAVYYCARSSRIYDLNPSLTAYYDMDVWGQGTMVTVSS
VL: QSVLTQPPSVSAAPGQKVTISCSGSSSDIGNNYVSWYQQLPGTAPKLLIYDNNKRPSGIPDRFSGSKSGTSATLGITGLQTGDEADYYCGTWDSSLSAWVFGGGTKLTVL

- percent remaining monomeric [2]: 99%
B2: scFvSTT, scFv of MEDI1912 with W35S, F36T and L64T in VH (scFv, V domains shown)
VH: B1 VH with W30S, F31T, L57T
VL: B1 VL
